Settings in all cases: chain copies: 2 (homodimer, stated)
For data set [1], the target named is T1, NF-kB p65 (RelA) homodimer (UniProt Q04206 Q04206:1-551). Nature of the data set: EMSA; p65 homodimer.
In data set [2] the target is T2, NF-kB p50 homodimer (UniProt P19838 P19838:1-433). Kind of data set: EMSA; stated as sub-nM. Background: Mobility shift assays separate free from complexed probe on a gel.
Data set [3] has as its target T1, NF-kB p65 (RelA) homodimer. Kind of data set: competition; inhibits p65/p65 and p50/p50 equally; nonspecific stickiness.
The target of data set [4] is T2, NF-kB p50 homodimer. Described as above.

As usually defined, the Kd is the free concentration of one partner at which half of the binding sites on the other are occupied at equilibrium, for simple one-to-one binding. High values mean a looser complex, low ones a tighter complex.

T2 sequence (P19838 1-433, one chain of several): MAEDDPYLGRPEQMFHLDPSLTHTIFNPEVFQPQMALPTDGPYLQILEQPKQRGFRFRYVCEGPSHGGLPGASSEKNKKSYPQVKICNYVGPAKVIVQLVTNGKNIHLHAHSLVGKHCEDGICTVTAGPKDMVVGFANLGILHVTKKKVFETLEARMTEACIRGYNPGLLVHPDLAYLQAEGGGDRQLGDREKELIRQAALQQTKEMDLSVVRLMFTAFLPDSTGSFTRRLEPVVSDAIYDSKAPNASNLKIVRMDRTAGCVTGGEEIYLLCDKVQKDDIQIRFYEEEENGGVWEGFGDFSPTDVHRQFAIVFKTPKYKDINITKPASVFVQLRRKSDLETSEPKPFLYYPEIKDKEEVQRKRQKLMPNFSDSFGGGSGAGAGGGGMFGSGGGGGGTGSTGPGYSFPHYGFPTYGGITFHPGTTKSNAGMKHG
T1 sequence (Q04206 whole entry, one chain of several): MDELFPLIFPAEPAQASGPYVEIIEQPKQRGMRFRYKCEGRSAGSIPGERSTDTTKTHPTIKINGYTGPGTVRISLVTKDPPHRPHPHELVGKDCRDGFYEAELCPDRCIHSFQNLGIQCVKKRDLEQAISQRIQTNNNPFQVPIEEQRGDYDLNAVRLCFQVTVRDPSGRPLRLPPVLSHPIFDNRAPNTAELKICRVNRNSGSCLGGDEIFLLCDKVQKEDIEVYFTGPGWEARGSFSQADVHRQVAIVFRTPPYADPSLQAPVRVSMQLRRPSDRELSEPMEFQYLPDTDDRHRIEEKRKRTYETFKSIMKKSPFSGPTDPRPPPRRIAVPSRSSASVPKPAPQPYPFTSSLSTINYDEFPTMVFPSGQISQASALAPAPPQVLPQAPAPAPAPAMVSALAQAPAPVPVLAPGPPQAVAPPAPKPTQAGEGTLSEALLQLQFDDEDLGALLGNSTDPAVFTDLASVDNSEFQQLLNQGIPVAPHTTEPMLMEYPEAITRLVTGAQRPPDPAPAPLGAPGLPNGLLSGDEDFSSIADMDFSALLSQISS

B1: XBY-6 (dsDNA)
DNA 1: CCAGGAGATTCCAC
DNA 2: GTGGAATCTCCTGG
modifications: 6 phosphorodithioate (S2) linkages: 5'-…2TS2CCAC-3' / 3'-GGS2TCCS2TCS2TAAGGS2TG-5'
With B1, the Kd in data set [1] was 1.4 nM; in data set [2], below 1 nM.

B2: CK-1 42-mer full phosphorothioate (dsDNA)
DNA 1: CCAGGAGATTCCACCCAGGAGATTCCACCCAGGAGATTCCAC
DNA 2: GTGGAATCTCCTGGGTGGAATCTCCTGGGTGGAATCTCCTGG
modifications: full PS
In the case of B2, the binding result in data set [3] and in data set [4] was “binds” in each case.

The values above are taken from US20060121489 (Board of Regents, The University of Texas System, published 2006).
